In the supplement of paper PMC5998384:

What was measured:
HeLa Kyoto [1] = test: solubility in G1/S (NP-40 vs SDS abundance) (log2 ratio); higher = more soluble; settings: cell cycle stage: G1/S
HeLa Kyoto [2] = test: melting temperature (median over replicates), in situ; higher = more thermally stable
HeLa Kyoto [3] = test: solubility change mitosis vs G1/S (difference of NP-40 vs SDS log2 ratios) (log2 ratio difference); higher = more soluble in mitosis
HeLa Kyoto [4] = test: thermal stability score vs G1/S (z-score of summed log2 fold changes over temperatures); higher = more thermally stable than in G1/S
[5] = cell cycle stage: early G1 (4.5 h after nocodazole release)
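Throughout, for melting temperature (median over replicates), in situ: HeLa Kyoto cells synchronized by double thymidine or nocodazole block, proteins quantified by TMT10plex mass spectrometry, three independent biological replicates.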
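Throughout, for solubility change mitosis vs G1/S (difference of NP-40 vs SDS log2 ratios): synchronized HeLa Kyoto cells (double thymidine block for G1/S, nocodazole release for mitosis), protein amounts in NP-40 versus SDS lysates quantified by mass spectrometry, three biological replicates.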
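Throughout, for solubility in G1/S (NP-40 vs SDS abundance): HeLa Kyoto cells arrested at G1/S by double thymidine block, proteins quantified by TMT10plex mass spectrometry in mild NP-40 versus SDS extracts, three biological replicates.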
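Throughout, for thermal stability score vs G1/S (z-score of summed log2 fold changes over temperatures): synchronized HeLa Kyoto cells, proteins quantified by TMT10plex mass spectrometry, three biological replicates, mitosis taken 0.5 h after nocodazole release, G1/S directly after double thymidine block.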

Chain of STK38L (chain, as listed by the source): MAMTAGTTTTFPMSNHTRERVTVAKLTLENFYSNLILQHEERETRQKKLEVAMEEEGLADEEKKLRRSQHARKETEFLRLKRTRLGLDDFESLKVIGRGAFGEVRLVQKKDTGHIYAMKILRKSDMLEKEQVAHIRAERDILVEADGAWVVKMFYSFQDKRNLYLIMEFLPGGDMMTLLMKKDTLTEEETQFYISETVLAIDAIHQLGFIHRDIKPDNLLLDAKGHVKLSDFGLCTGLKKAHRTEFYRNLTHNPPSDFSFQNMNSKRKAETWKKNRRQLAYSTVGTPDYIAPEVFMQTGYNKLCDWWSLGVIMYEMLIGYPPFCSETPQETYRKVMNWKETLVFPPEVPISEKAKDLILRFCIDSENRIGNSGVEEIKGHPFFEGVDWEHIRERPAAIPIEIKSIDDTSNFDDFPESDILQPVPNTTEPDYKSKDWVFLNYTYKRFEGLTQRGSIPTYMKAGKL

Row | Substance | solubility in G1/S (log2) (HeLa Kyoto [1]) | melting temperature (HeLa Kyoto [2]; cell cycle stage: G1/S) [°C] | melting temperature (HeLa Kyoto [2]; cell cycle stage: mitosis) [°C] | solubility change mitosis (log2) (HeLa Kyoto [3]) | thermal stability score (HeLa Kyoto [4]; [5]) | thermal stability score (HeLa Kyoto [4]; cell cycle stage: mitosis)
1 | MLFIFNFLFSPLPTPALICILTFGAAIFLWLITRPQPVLPLLDLNNQSVGIEGGARKGVSQKNNDLTSCCFSDAKTMYEVFQRGLAVSDNGPCLGYRKPNQPYRWLSYKQVSDRAEYLGSCLLHKGYKSSPDQFVGIFAQNRPEWIISELACYTYSMVAVPLYDTLGPEAIVHIVNKADIAMVICDTPQKALVLIGNVEKGFTPSLKVIILMDPFDDDLKQRGEKSGIEILSLYDAENLGKEHFRKPVPPSPEDLSVICFTSGTTGDPKGAMITHQNIVSNAAAFLKCVEHAYEPTPDDVAISYLPLAHMFERIVQAVVYSCGARVGFFQGDIRLLADDMKTLKPTLFPAVPRLLNRIYDKVQNEAKTPLKKFLLKLAVSSKFKELQKGIIRHDSFWDKLIFAKIQDSLGGRVRVIVTGAAPMSTSVMTFFRAAMGCQVYEAYGQTECTGGCTFTLPGDWTSGHVGVPLACNYVKLEDVADMNYFTVNNEGEVCIKGTNVFKGYLKDPEKTQEALDSDGWLHTGDIGRWLPNGTLKIIDRKKNIFKLAQGEYIAPEKIENIYNRSQPVLQIFVHGESLRSSLVGVVVPDTDVLPSFAAKLGVKGSFEELCQNQVVREAILEDLQKIGKESGLKTFEQVKAIFLHPEPFSIENGLLTPTLKAKRGELSKYFRTQIDSLYEHIQD [ACSL5] | -0.0641 | 51.8 | 51.1 | -0.0802 | -0.104 | -0.53
2 | MEDLDQSPLVSSSDSPPRPQPAFKYQFVREPEDEEEEEEEEEEDEDEDLEELEVLERKPAAGLSAAPVPTAPAAGAPLMDFGNDFVPPAPRGPLPAAPPVAPERQPSWDPSPVSSTVPAPSPLSAAAVSPSKLPEDDEPPARPPPPPPASVSPQAEPVWTPPAPAPAAPPSTPAAPKRRGSSGSVDETLFALPAASEPVIRSSAENMDLKEQPGNTISAGQEDFPSVLLETAASLPSLSPLSAASFKEHEYLGNLSTVLPTEGTLQENVSEASKEVSEKAKTLLIDRDLTEFSELEYSEMGSSFSVSPKAESAVIVANPREEIIVKNKDEEEKLVSNNILHNQQELPTALTKLVKEDEVVSSEKAKDSFNEKRVAVEAPMREEYADFKPFERVWEVKDSKEDSDMLAAGGKIESNLESKVDKKCFADSLEQTNHEKDSESSNDDTSFPSTPEGIKDRSGAYITCAPFNPAATESIATNIFPLLGDPTSENKTDEKKIEEKKAQIVTEKNTSTKTSNPFLVAAQDSETDYVTTDNLTKVTEEVVANMPEGLTPDLVQEACESELNEVTGTKIAYETKMDLVQTSEVMQESLYPAAQLCPSFEESEATPSPVLPDIVMEAPLNSAVPSAGASVIQPSSSPLEASSVNYESIKHEPENPPPYEEAMSVSLKKVSGIKEEIKEPENINAALQETEAPYISIACDLIKETKLSAEPAPDFSDYSEMAKVEQPVPDHSELVEDSSPDSEPVDLFSDDSIPDVPQKQDETVMLVKESLTETSFESMIEYENKEKLSALPPEGGKPYLESFKLSLDNTKDTLLPDEVSTLSKKEKIPLQMEELSTAVYSNDDLFISKEAQIRETETFSDSSPIEIIDEFPTLISSKTDSFSKLAREYTDLEVSHKSEIANAPDGAGSLPCTELPHDLSLKNIQPKVEEKISFSDDFSKNGSATSKVLLLPPDVSALATQAEIESIVKPKVLVKEAEKKLPSDTEKEDRSPSAIFSAELSKTSVVDLLYWRDIKKTGVVFGASLFLLLSLTVFSIVSVTAYIALALLSVTISFRIYKGVIQAIQKSDEGHPFRAYLESEVAISEELVQKYSNSALGHVNCTIKELRRLFLVDDLVDSLKFAVLMWVFTYVGALFNGLTLLILALISLFSVPVIYERHQAQIDHYLGLANKNVKDAMAKIQAKIPGLKRKAE [RTN4] | -0.0792 | 56.6 | 56.7 | -0.155 | -0.746 | -1.43
3 | MDLLPPKPKYNPLRNESLSSLEEGASGSTPPEELPSPSASSLGPILPPLPGDDSPTTLCSFFPRMSNLRLANPAGGRPGSKGEPGRAADDGEGIVGAAMPDSGPLPLLQDMNKLSGGGGRRTRVEGGQLGGEEWTRHGSFVNKPTRGWLHPNDKVMGPGVSYLVRYMGCVEVLQSMRALDFNTRTQVTREAISLVCEAVPGAKGATRRRKPCSRPLSSILGRSNLKFAGMPITLTVSTSSLNLMAADCKQIIANHHMQSISFASGGDPDTAEYVAYVAKDPVNQRACHILECPEGLAQDVISTIGQAFELRFKQYLRNPPKLVTPHDRMAGFDGSAWDEEEEEPPDHQYYNDFPGKEPPLGGVVDMRLREGAAPGAARPTAPNAQTPSHLGATLPVGQPVGGDPEVRKQMPPPPPCPGRELFDDPSYVNVQNLDKARQAVGGAGPPNPAINGSAPRDLFDMKPFEDALRVPPPPQSVSMAEQLRGEPWFHGKLSRREAEALLQLNGDFLVRESTTTPGQYVLTGLQSGQPKHLLLVDPEGVVRTKDHRFESVSHLISYHMDNHLPIISAGSELCLQQPVERKL [SHC1] | 0.307 | 52.5 | 52.9 | -0.067 | -1.86 | -2.06
4 | MENSSAASASSEAGSSRSQEIEELERFIDSYVLEYQVQGLLADKTEGDGESERTQSHISQWTADCSEPLDSSCSFSRGRAPPQQNGSKDNSLDMLGTDIWAANTFDSFSGATWDLQPEKLDFTQFHRKVRHTPKQPLPHIDREGCGKGKLEDGDGINLNDIEKVLPAWQGYHPMPHEVEIAHTKKLFRRRRNDRRRQQRPPGGNKPQQHGDHQPGSAKHNRDHQKSYQGGSAPHPSGRPTHHGYSQNRRWHHGNMKHPPGDKGEAGAHRNAKETMTIENPKLEDTAGDTGHSSLEAPRSPDTLAPVASERLPPQQSGGPEVETKRKDSILPERIGERPKITLLQSSKDRLRRRLKEKDEVAVETTTPQQNKMDKLIEILNSMRNNSSDVDTKLTTFMEEAQNSTNSEEMLGEIVRTIYQKAVSDRSFAFTAAKLCDKMALFMVEGTKFRSLLLNMLQKDFTVREELQQQDVERWLGFITFLCEVFGTMRSSTGEPFRVLVCPIYTCLRELLQSQDVKEDAVLCCSMELQSTGRLLEEQLPEMMTELLASARDKMLCPSESMLTRSLLLEVIELHANSWNPLTPPITQYYNRTIQKLTA [CTIF] | 0.0528 | 52.1 | – | 0.157 | -0.292 | 0.109
5 | MLSLRVPLAPITDPQQLQLSPLKGLSLVDKENTPPALSGTRVLASKTARRIFQEPTEPKTKAAAPGVEDEPLLRENPRRFVIFPIEYHDIWQMYKKAEASFWTAEEVDLSKDIQHWESLKPEERYFISHVLAFFAASDGIVNENLVERFSQEVQITEARCFYGFQIAMENIHSEMYSLLIDTYIKDPKEREFLFNAIETMPCVKKKADWALRWIGDKEATYGERVVAFAAVEGIFFSGSFASIFWLKKRGLMPGLTFSNELISRDEGLHCDFACLMFKHLVHKPSEERVREIIINAVRIEQEFLTEALPVKLIGMNCTLMKQYIEFVADRLMLELGFSKVFRVENPFDFMENISLEGKTNFFEKRVGEYQRMGVMSSPTENSFTLDADF [RRM2] | -0.239 | 56.8 | 56.4 | 0.14 | -6.63 | -8.23
6 | MEFLKTCVLRRNACTAVCFWRSKVVQKPSVRRISTTSPRSTVMPAWVIDKYGKNEVLRFTQNMMMPIIHYPNEVIVKVHAASVNPIDVNMRSGYGATALNMKRDPLHVKIKGEEFPLTLGRDVSGVVMECGLDVKYFKPGDEVWAAVPPWKQGTLSEFVVVSGNEVSHKPKSLTHTQAASLPYVALTAWSAINKVGGLNDKNCTGKRVLILGASGGVGTFAIQVMKAWDAHVTAVCSQDASELVRKLGADDVIDYKSGSVEEQLKSLKPFDFILDNVGGSTETWAPDFLKKWSGATYVTLVTPFLLNMDRLGIADGMLQTGVTVGSKALKHFWKGVHYRWAFFMASGPCLDDIAELVDAGKIRPVIEQTFPFSKVPEAFLKVERGHARGKTVINVV [RTN4IP1] | -0.119 | 50.7 | 51.7 | -0.0156 | 0.632 | 1.04
7 | STK38L | -0.0449 | 50.2 | 49.3 | -0.074 | 0.62 | 1.53
